The results in this text go back to PMC7793589 (Science Advances, 2021).

Data set [1] addresses plasma kallikrein (human).
The data set “SAXS” deals with the molecule itself. As to the kind of experiment: SAXS.

In the case of “recombinant ITIH4 (ITIH4 WT) (from UniProt Q14624 29-930) (natural protein)”, the IC50 of ITIH4 on cleavage of HMWK by plasma kallikrein in Ca2+/Mg2+, SDS-PAGE in data set [1] stood at 90 nM.

B1: recombinant ITIH4 (ITIH4 WT) (natural protein, human, UniProt Q14624 29-930, looked up)
chain: EKNGIDIYSLTVDSRVSSRFAHTVVTSRVVNRANTVQEATFQMELPKKAFITNFSMIIDGMTYPGIIKEKAEAQAQYSAAVAKGKSAGLVKATGRNMEQFQVSVSVAPNAKITFELVYEELLKRRLGVYELLLKVRPQQLVKHLQMDIHIFEPQGISFLETESTFMTNQLVDALTTWQNKTKAHIRFKPTLSQQQKSPEQQETVLDGNLIIRYDVDRAISGGSIQIENGYFVHYFAPEGLTTMPKNVVFVIDKSGSMSGRKIQQTREALIKILDDLSPRDQFNLIVFSTEATQWRPSLVPASAENVNKARSFAAGIQALGGTNINDAMLMAVQLLDSSNQEERLPEGSVSLIILLTDGDPTVGETNPRSIQNNVREAVSGRYSLFCLGFGFDVSYAFLEKLALDNGGLARRIHEDSDSALQLQDFYQEVANPLLTAVTFEYPSNAVEEVTQNNFRLLFKGSEMVVAGKLQDRGPDVLTATVSGKLPTQNITFQTESSVAEQEAEFQSPKYIFHNFMERLWAYLTIQQLLEQTVSASDADQQALRNQALNLSLAYSFVTPLTSMVVTKPDDQEQSQVAEKPMEGESRNRNVHSGSTFFKYYLQGAKIPKPEASFSPRRGWNRQAGAAGSRMNFRPGVLSSRQLGLPGPPDVPDHAAYHPFRRLAILPASAPPATSNPDPAVSRVMNMKIEETTMTTQTPAPIQAPSAILPLPGQSVERLCVDPRHRQGPVNLLSDPEQGVEVTGQYEREKAGFSWIEVTFKNPLVWVHASPEHVVVTRNRRSSAYKWKETLFSVMPGLKMTMDKTGLLLLSDPDKVTIGLLFWDGRGEGLRLLLRDTDRFSSHVGGTLGQFYQEVLWGSPAASDDGRRTLRVQGNDHSATRERRLDYQEGPPGVEISCWSVEL
Consider B1, for which, in the data set “SAXS”, the stoichiometry N (in general, the number of molecules, sites or subunits per partner or assembly) was 2.
